Test: yeast display, Sf9 membrane polyspecificity reagent, FACS + sequencing; frameworks hold sequencing errors
Method in brief: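 A nanobody's polyreactivity label depends on the gate it was sorted from. Yeast display cells were stained with 10% biotinylated, detergent-solubilized Sf9 membrane reagent for 1 hour at 4 °C, enriched on streptavidin microbeads and sorted by FACS. The low and high (top ~1%) gates were set on anti-HA fluorescence for expression and streptavidin fluorescence for reagent binding.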
With “QVQLVESGGGLVQAGGSLRLSCAASGSTFTPYAMGWYRQAPAKERELVAAITSGGPTNYADSVKGRFTISRDNAKNTVYLQMNSLKPEDTAVYYCNAEYLYWWEIYDYWGQGNQVTVSS” the “polyreactivity (PSR sort gate)” value was “high polyreactivity”.
For “QVQLVESGGGLVQAGGSLLLSCAASGITFKWNDMGWYRQAPGKEREFVAAITGSTGSTFYADSVKGRFTISRDNAKNSVYLQMNSLNTEDTAVYYCAAGPWFYYWGQGTQVTVSS”, the “polyreactivity (PSR sort gate)” value was “low polyreactivity”.
With “QVQLVESGGGLVQAGGSLRLSCAASGFIFRYYAMGGYRQAPGKERELVAAISWSGVSTNYADSVKGRFTISRDNAKNTVYLQMNSLTPVDTAVYSCAADGTVRSLGRYYHWGQGTQVTVSS” the “polyreactivity (PSR sort gate)” value was “low polyreactivity”.
In the case of “EEELVESGGGLVQAGGSLRLSCAASGRTYPNTMGWYRQAPGKERELVAAITTSGTSTRYADSVKGRFTISRDNAKNTVYLQMNSLKPEDTAVYYCATRYSGKTYHYNYWGQGTQVTVSS”, the “polyreactivity (PSR sort gate)” value is reported as “high polyreactivity”.
For “QVQLVESGGGLVQAGGSLRLSCAASGFTFSRYAMGWYRQAPGKEREFVAAISWSGGSTYYADSVKGRFTISRDNAKNTVYLQMNSLKPEDTAVYYCNAGSQLLASQTRYDYWGQGTQVTVSS”, the “polyreactivity (PSR sort gate)” value was “low polyreactivity”.
With “QVQLVESGVGLVQAGGSLRLSCAASGSIFLRNDMAWYRQAPGKERELVAGISSVGSTYYADSVKGRFTISRDNAKNTVYLQMNSLKPEDTAVYYCAAERWGNPTDYQFWRPYDYWGQGTQVTVSS” the “polyreactivity (PSR sort gate)” value was “low polyreactivity”.
In the case of “QEQLQDSGGGLVQAGGSLRLSCAASGYISSLAAMGWYRQAPGKERDLVAGNDLGTITNYADSVKGRLTISRDNAKNNVYLQMNSLKPEDTEVYYCAKYRWYGVYWGQGTHVTVSS”, the “polyreactivity (PSR sort gate)” value is reported as “low polyreactivity”.
For “QVQLVESGGGLVQAGGSLRLSCAASGSIFDNYAMGCYRQAPRKERELVAAINFSDGDTYYGDSVKGRFTISRDNAKNTVYLQMNSLKPEDTAVYYCAAEVWYPPEYYDEYDYWGQGTQVTVSS”, the “polyreactivity (PSR sort gate)” value was “low polyreactivity”.
For “QVQLVESGGGLVQAGGSLRLSCAASGITFYRYMGWYRQAPGKERELVASITGRGGSTYYADSVKGRFTISRDNAKNTVYLQMNSLKPEDTAVYYCAARSYARPGGSRFDYWGQGTQVTVSS”, the “polyreactivity (PSR sort gate)” value was “high polyreactivity”.
With “QVQLVESGGGLVQAGGSLRLSCAASGSIFAGNAMGWYRQAPGKERELVAAISRRGGSTYYADSVKGRFTISRDNAKNTVYLQMNSLKPEDTAVYYCNALLRYAYHAAYGYWGQGPQVTVSS” the “polyreactivity (PSR sort gate)” value was “high polyreactivity”.
With “QVQLVESGGGLVQAGGSLRLSCAASGSIFTWYAMGWYRQAPGKERELVAAITTGGDTYYADSVKGRFTISRDNAKNTVYLQMNSLKPEDTAVYYCAATPTYWYLCSPYDYWGQGTQVTVSS” the “polyreactivity (PSR sort gate)” value was “low polyreactivity”.
In the case of “QVQLVESGGGIVHAGGSLGLSCAASGRIFYSNAMGWYRQAPGKERELVAAISWNGGRTYYADSVKGRFTISRDNAKNTVYLQMKSLKPEDHAVYYCAVRYARQYYYRSGAYASRYLYNYWGQGTQVTVSS”, the “polyreactivity (PSR sort gate)” value is reported as “high polyreactivity”.
In the case of “QVQLVESGGGLVQAGGSLRLSCAASGSIFLVNAMGWYRQAPGKVRELVAAITYGGDSTYYADSVKGRFTISRDHAQNTVYLQMNSLKPEDTAVYYCAADAWVGWHDEYDYWGQGTQVTVSA”, the “polyreactivity (PSR sort gate)” value is reported as “low polyreactivity”.
With “QVQLVESGGGLVQAGGSLRLSCAASVRIFDYNAMGWYRQAPGKERELVAAITSGGSTNYADSVKGRFTISRDNAKNTVYLQMNSLKPEDTAVYYCNAEPETTIDYWGQGTQVTVSS” the “polyreactivity (PSR sort gate)” value was “low polyreactivity”.
With “QVQLVESGGGLVQAGGSLRLSCAASGFTFTTYAMGWYRQAPRQVRELVAAITRRGGSTYYADSVKGRFTISRDNEKNTVYLQMNSLKPEDTAVYYCAAGGGWGLDFWGQGTQVTVSS” the “polyreactivity (PSR sort gate)” value was “high polyreactivity”.
For “QDQLVESGGGLVQAGGSLRLSCAASGLTFGRYAMGWYRQAPGKERELVAAITWNGDGTYYADSVKGRFTISRDNAKNTVYLQMNSQKPEDSAVFYCAADYYTYLYGRYNYWGQGTQVTVSS”, the “polyreactivity (PSR sort gate)” value was “low polyreactivity”.
For “QVQLVESGGGLVQAGGSLRLSCAASGSTIWYYVMGWYRAAPGKERELVAAIRSNDGSTYYADSVKGRFTISRDNAKNTDYLQLNRLKPEDTAVYYCAADDWVYAQEYDYWGQGTQVTVSS”, the “polyreactivity (PSR sort gate)” value was “low polyreactivity”.
In the case of “QVQLVESGGGLVQAGGSLRLSCAASGGTFPFYAMGWYRQAPGKERELVAAITFTTSSTYYADSVKGRFTISRDNAKNTVYLQMNSLKPEDTAVYYCAVDYGWYSSYYREYDYWGQGTQVTVSS”, the “polyreactivity (PSR sort gate)” value is reported as “low polyreactivity”.
In the case of “QVQLVESAGGLVQAGGSLRLSCAASGIIFPAYAMGWYRQAPGKERELVAGISGRGGSTYYADSVKGRFTISRDNAKNTVYLQMNSLKPEDTAVYYCAAYAGGPYKFDYWGQGTQVTVSS”, the “polyreactivity (PSR sort gate)” value is reported as “high polyreactivity”.
For “QVQLVESGGGLVQAGGSLRLSCAASGYIFATNAMGWYRQSPGKERELVAAITRSGGRTYYADSVKGRFTISRDNAKNTVYLQMNSLKPEDTAVYYCAAARPTNIYYYWGQGTQVTVSS”, the “polyreactivity (PSR sort gate)” value was “high polyreactivity”.
In the case of “QVQLVESGGGLVQAGGSLRLICAVSGHIFGSNAMGWYRQAPGKERELVAAIRSSGGSTYYADSVKGRFTISRDYAKNTVYLQMNSLKPEDTAVYYCAVETLTSTSLTRMDYWGQGTQVTVSS”, the “polyreactivity (PSR sort gate)” value is reported as “low polyreactivity”.
In the case of “QVQLVESGGALVQAGGSLRLSCAASGLTFEVYAMGWYRQAPGKESELVAAISSGGGSTYYADSVKGRFTISRDNAKNTVYLQMNSLKPEDTEVYYCNAVAKLYYWRYDYWGKGTQVTVSS”, the “polyreactivity (PSR sort gate)” value is reported as “low polyreactivity”.
With “QVQLVESGGGLVQAGGSLRLSCAASGIIFATYAMGWYRQAPGKERELVASISTGDSTNYADSVKGRFTISRDNAKTTVYLQMNSLKPEDTAVYYCNADSYPYYVYGSNDYWGQGTQVTVSS” the “polyreactivity (PSR sort gate)” value was “low polyreactivity”.
For “QVQLVESGGGFVQAGGSLRLSSAASGSTLPGYAMGSYRQAPGKERELVAGISTRGGNTYYADSVKGRFTISRDNAKNTVYLPMNSLKPEDTAVYYCAAGIPRQAYKFYWGQGTQVTVSS”, the “polyreactivity (PSR sort gate)” value was “high polyreactivity”.
With “QVQLVESGGGLVQAGGSLRLSCAASGRIFKRNAMGWYRQAPGKERELVAAITGNVGSTYYADSVKGRFTISRDNAKNTVYLQMNSLKPEDTAVYYCAAYVQYSSIVGYGYWGQGTQVTVSS” the “polyreactivity (PSR sort gate)” value was “high polyreactivity”.
With “QVQLVESGGGLVQAGGSLRLSCSASGSIFGIYTMGWYRQAPGKERELVAAINSGGSTNYADSVKGRFTISRDNAKNTVYLQMNSLKPEDTAVYYCAAGGSSSWAFNYWGQGTQVTVSS” the “polyreactivity (PSR sort gate)” value was “low polyreactivity”.
In the case of “QVLLQESGGGLVQAGGSLRLCCAASGYISGDQIMGWYRQAPGKDREFVAGIGNGTNTNYADSVKGRFTTSRDNAKNTVYLQMNSLNPEDTAVYYCPADPSDGSTLAYWGQGTQVTVSS”, the “polyreactivity (PSR sort gate)” value is reported as “high polyreactivity”.
With “QVQLVESGGGLVQAGGSLRLSCAASGSTFAHNAMGWYRQAPGKERELVAAISRRGGSTYYADSVKGRFTISRDNAQNTVYLQMNSLKPEDTAVYYCNAVAHNVRVYRFYPGWAGLDYWGQGTQVTVSS” the “polyreactivity (PSR sort gate)” value was “high polyreactivity”.
For “QVQIVESGGGLVQAGGSLRIICAASGSTFDPNAMGWYRQAPGKERELVAGISTGGTRTYYADSVKGRFTISRDNAKNTVFLQLKSLKPEDTAVYYCAARFTYNVLDTIYRLYYWGQGTQVTVSS”, the “polyreactivity (PSR sort gate)” value was “high polyreactivity”.
With “QVQLGESGGGLGQAGGSLSLSCAATGSIFPYNPMGWYRQAPGKERELVATINSRGGRTYYADSVKGRFTISRDNAKNTVYLQMNSLKPEDTAVYYCARYYSSALRYGYWGQGTQVTVSS” the “polyreactivity (PSR sort gate)” value was “low polyreactivity”.
For “QVQLVESGGGLVQAGGSLRLSCAASGYTFAYYVMGWYRQAPGKERELVATIRSRAGRTYYADSVKGRFTISRDNAKNTVYLQLNSLKPEDTAVYYCAAGWYYTYDYWGQGTQVTVSS”, the “polyreactivity (PSR sort gate)” value was “high polyreactivity”.
In the case of “QVQLVESCGGLVQAGGSLRLSCAASGHIFFYYTMGWYRQAPGKQRELVAGITIGGSTNYADSVKGRFTISRDNAKNTVYLQMNSLKPEDTAVYYCNVVKYVYIYSYWEYYYWGQGTQVTVSS”, the “polyreactivity (PSR sort gate)” value is reported as “low polyreactivity”.
With “QVQLVESGGGLVQAGGSLRLSCAASGGIFGWYTMGWYRQAPGKERELVAAINFSGSRTYYADSVKGRFTISRDNAKNTVYLQMNSLKPEDTAVYYCNAVYHQFREEYWGQGTQVTVSS” the “polyreactivity (PSR sort gate)” value was “high polyreactivity”.
For “QVQLVESGGGLLQAGGSLRLSCAASGFTFSFYARGWYRQAPGKERELVAAISYSGGITYYADSVKGRFTISRDNAKNTVYLQINSLKPEDTAVYYCAAVPGISVGRQPGYDYDYWGHGTQVTVSS”, the “polyreactivity (PSR sort gate)” value was “low polyreactivity”.
In the case of “QVNHVESGGGLVQAGGSLRLICAASGSTYNNAMGWYRQAPGKERELVAAIRWSGGSTYYADSVKGRFTISRDNANYTVYLQMNSLNPEDTAVYYCASAYRWSRKRYNDYDYWGQGSQVTVSS”, the “polyreactivity (PSR sort gate)” value is reported as “high polyreactivity”.
With “QVQLVESGGGLVQAGGSLRLSCAASGRIFPRNTMGWYRQATGKERELVAAISVSGGSTYYADSVKGRVTISRDNAKNTVYLQMNRLKPEDTAVFFCAAAKCYRSGSWYEYWGQGTQVTVSS” the “polyreactivity (PSR sort gate)” value was “high polyreactivity”.
For “QVQLVESGGGLVQAGGSLRLSCAASGYTLTINVMGWYRQAPGKERELVAAITSSGASTNYADSVKGRFTISRDNAKNTVYLQMNSLKPEDTAVYYCNVVNEHQSDFVVPFDYNHWGQGTQVTVSS”, the “polyreactivity (PSR sort gate)” value was “low polyreactivity”.
In the case of “QVQLVESGGGLVQAGGSLRLSSAASGFVCNAMGWYRQAPGKERDLVAAIDSSGGNTYYADSVKGRFTISRDNAKNTVYLQMNSMKPEDTAVYYCAARYVERHTDYYYWGQGTQVTVSS”, the “polyreactivity (PSR sort gate)” value is reported as “low polyreactivity”.
With “QVQLVESGGGLVQAGGSLRLSCAASGFTFTYYAMGWYRPAPGKERELVAAISTGGSTYYADSVKGRFTISRDNAKNTVYLQMNSLKPEDTAVYYCNAKPRYRKADRLDYWGQGTQVTVSS” the “polyreactivity (PSR sort gate)” value was “high polyreactivity”.
For “QVQLVESGGGLVQAGGSLRISCAASGRTFPGNAMGCYRQAPGKERELVAAISYSGGRTYYADSVKGRFTISRDNAKNTVYLQMNSLNPEDTAVYYCNRTPYSDYVFAYDYWGQGTQVTVSS”, the “polyreactivity (PSR sort gate)” value was “high polyreactivity”.
For “QVQLVESAGGLVQAGGSLRLSCDASGSTIDEYDMGWYRQAPGKERELVAAISDRGSRTRYADSVKGRFTISRDNAKNTVYLQLNSLKPEDTAVDYCNADIYVNYWDFDYWGQGTQVTVSS”, the “polyreactivity (PSR sort gate)” value was “high polyreactivity”.
For “QVQLVESGGGLVQAGGSLRISCAASGSIFRGYGMGWDRQAPGKERELVAAINYSGGSTYYADSVKGRYTISRDNAKNTVYLQMNSLKPEDTAVYYCNKVYYRQRGEYYYWGQGTQVTVSS”, the “polyreactivity (PSR sort gate)” value was “high polyreactivity”.
For “QVQLVESGGGLVQAGGSLRLSCAASGRTFYINAMGWYRPEPGKERELVAAISSSGGITYYADSVKGRFTISRDNAKNTVNLQMIRLKPEDTAVYYCNAPNDYSWHYDYWGQGTQVTVSS”, the “polyreactivity (PSR sort gate)” value was “low polyreactivity”.

Reference: the nanobody polyreactivity screen of Harvey et al. (2022)
